The text below walks through data of patent publication US20060167220A1, “Methods and compositions for preparing peptides with excellent solubility characteristics in aqueous solution at physiological pH” (priority 2004, published 2006).

A short description of the data set: Dissolution test of peptide sample (pH raised stepwise with NaOH until dissolved). In kind it is physicochemical. The protocol: For example, a simple dissolution test can be used to evaluate the solubility characteristics of a peptide sample. The test is conveniently carried out at a temperature in the range of from about 20° C. to about 27° C., preferably about 25° C. From about 0.1 to about 0.3 grams of peptide is combined with about 1 to about 3 ml of an aqueous medium. The medium may be deionized water. In the case of T-20 or T-1249, these peptides are mildly acidic. Consequently, the medium optionally may include some initial amount base, e.g., about 17 mM Na2CO3 or the like, to provide a suitable initial pH. […] The mixture is rapidly stirred for 5 to 10 minutes between additional increments. Solids adhering to the sides of the testing vessel should be re-suspended. Rapid mixing should be maintained throughout. Results include observations regarding the clarity of the mixture, time required for dissolution, concentration and amount of caustic used, final pH upon dissolution (if this occurs below pH 9), and the like.
For purposes of the invention, peptides such as T-20, T-1249, and GLP-1, as well as counterparts of these, may be deemed to be in a more desired, deaggregated form if dissolution in accordance with this test occurs at a pH of less than about 8, preferably less than about 7.5. If dissolution occurs at a pH of greater than about 7.5, more preferably greater than about 8, the peptide is deemed to be in a less desired aggregated form. This helps to ensure the practicality of handling the peptide during subsequent processing and handling.

[1] abbreviates: precipitated with 18% by volume acetonitrile.

Consider “Acetyl-WQEWEQKITALLEQAQIQQE KNEYELQKLDKWASLWEWF-NH2 (Ac-WQEWEQKITALLEQAQIQQEKNEYELQKLDKWASLWEWF-NH2) [Sample T-1249, ID NO; 20]”, for which the Dissolution behavior entry (precipitated with 14% by volume acetonitrile) is “dissolved to some degree at a pH of 6.95 but not completely”. For the same substance, under setting [1], the Dissolution time was found to be 1 h, the “Final pH at dissolution” value is listed as 6.69 and the Turbidity in words entry is recorded as “only very faint turbidity”. Further, under “precipitated with 20 to 22 volume percent acetonitrile”, the “Dissolution pH” value was “around 9”. For the setting “precipitated with no co-solvent”, the Dissolution behavior result is “dissolved very slowly with high turbidity even after 14 to 18 hours and even at a pH of 8”.
